Results from the supplement of paper PMC10567573.

B1: TRIM15 (parent)
chain: LSQMGAQSSGKILLCPLCQEEEQA
B2: ACSBG2 (parent)
chain: FAQADALKGTLVSTLKEVKPTVFI

Variants of: B1
Assay: protein stability index of a GFP-peptide fusion (GPS, HEK-293T) (PSI 1-6); higher = more stable
Details: c terminus: a fixed tail appended
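Also: lentivirally expressed fusions sorted by FACS into six bins by GFP to DsRed ratio, PSI derived from sequencing read proportions per bin multiplied by bin number.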

Protein stability index of substitutions, site by site:
L1: M 3.52; E 3.99; G 3.96; P 3.44; D 4.53; Q 4.4; N 3.75; S 3.55; V 3.97; W 4.43; Y 2.65; F 2.73; I 3.38; H 3.94; A 3.1; K 3.7; R 3.77
Q7: I 2.74; K 3.47; F 2.88; L 2.8; A 4.11; E 3.52; D 3.88; G 3.58; H 4.53; C 3.71
G5: Q 3.92; H 3.14; D 3.49; A 3.49; I 2.98; K 3.87; L 3.27; P 2.76; R 3.32; M 2.95; C 3.92; V 3.13; Y 2.9; F 3.22; T 3.7; S 3.05; N 3.39
Q3: R 3.23; D 3.97; E 3.68; K 4.1; V 2.81; C 3.18; M 2.96; Y 3.24; W 2.23; I 3.11; N 3.55; H 3.95; F 2.9; T 3.58; P 4.9
M4: I 3.82; P 4.94; L 4.22; A 4.66; Y 3.76; S 4.08; E 3.94; V 2.81; G 3.2; F 3.26; R 3.92; C 4.13; N 3.6
S2: K 3.14; R 3.7; Y 3.63; A 2.6; I 1.9; P 4.26; E 4; M 3.58; T 3.71; F 2.96; D 5.08; Q 4.06; H 3.43
A6: P 3.8; N 3.12; K 4.68; M 3.3; W 3.94; C 3.37; I 3.93; H 4.33; R 3.17; S 4.02; D 3.75; V 3.81; F 2.6; E 3.56; T 3.27; G 3.47; Y 3.29

Variants of: B2
Assay: as above
Details: c terminus: a fixed tail appended

Protein stability index of substitutions, site by site:
T10: Q 1.79; W 2.36; Y 3.48; R 2.62; V 2.24; S 1.55
T14: H 2.27; D 1.88; M 1.32; I 2.22; L 1.51; N 2.26; E 1.26; P 1.23; V 2.05; K 2.03; A 1.8; F 2.64; Q 1.95; Y 3.04; S 1.08
I24: P 2.27; K 2.41; F 4.5; G 2.08; W 1.26; C 2.92; T 2.36; H 2.02; N 3.24; Q 2.23; A 1.98; L 1.05; V 1.83; D 2.88; M 1.16; S 2.27
P20: G 2.47; Y 2.68; N 2.42; F 2.4; D 1.51; W 2.33; V 1.91; K 1.25; R 2.28; L 3.23; S 2.9; Q 2.13
L11: P 1.84; F 1.7; G 1.51; T 2.78; C 1.72; E 2.88; V 2.08; N 2.1; R 2.13; D 2.02; S 1.61; H 1.72; A 1.88; M 2.41; I 2.55; K 1.67; Q 2.88
L15: Y 1.78; M 1.6; E 2.39; V 1.06; P 2; W 1.66; Q 2.02; H 1.93; G 1.4; F 1.77; T 1.97; D 2.19; A 2.51; S 1.96; N 1.77; R 2.1; K 1.8
V18: P 1.74; H 1.28; D 1.68; M 1.44; C 3.06; W 3.71; E 5.23; T 1.26; S 1.98; G 1.79; R 1.89; A 2.63; N 2.43; L 1.04; I 2.48; K 1.92; Q 2.04
V12: P 1.85; A 1.64; E 1.89; M 1.66; I 2.26; L 1.25; S 1.34; H 2.12; K 3.87; G 1.95; R 2.08; C 1.76; T 1.63; D 1.81; Q 1.52; N 1.6
F23: C 2.52; Q 2.16; E 2.3; I 1.65; N 1.69; M 1.86; T 1.73; G 2.36; V 2.18; S 2.16; L 2.52; D 2.62; H 1.75; K 2.69; W 2.2; R 2.64; A 1.96; Y 2.32; P 2.76
K16: T 3.25; A 1.97; R 1.45; E 2.38; F 2.41; P 2.41; S 2.25; H 2.75; V 2.8; Q 1.56; D 1.65; C 2.34; W 2.4
K19: D 2.26; E 1.48; H 1.04; M 3.1; Q 2.08; W 1.99; Y 2.36; A 2.49; F 3.16; C 2.65; N 1.48; R 1.02; S 2.45; G 3.46; T 2.53; P 2.84
S13: M 3.57; V 4.44; Q 1.39; R 1.46; Y 3.19; K 3.44; N 2.01; P 1.41; G 1.04; D 1.85; I 2.4; H 1.84; E 1.27; C 1.93; A 2.1; T 2.04; F 2.53; L 2.05
E17: I 1.86; V 2.23; Q 1.73; P 1.83; R 1.99; S 1.81; F 2.07; A 1.03; M 2.29; H 3.49; C 2.06; N 3.2; L 2.51; K 1.45; G 1.95; D 1.48; T 3.12
V22: R 2.94; D 2.99; K 2.45; Q 2.28; G 2.25; E 1.94; F 1.67; N 1.98; A 2.73; P 2.02; H 1.92; C 2.18; L 1.3; Y 1.67; S 2.05; T 2.77; I 2.43
T21: M 1.82; I 4.12; N 1.92; V 4.03; E 1.47; H 1.61; Q 1.32; R 2; A 1.36; Y 1.64; G 2.14; K 1.14; D 1.82; S 2.35; P 1.22; W 3.06
